The test addresses Tat translocon (TatABC) in inverted membrane vesicles (E. coli) (UniProt P69428). Description: co-sedimentation.

Consider two substances from article PMC2770089.

Chain of Tat translocon (TatABC) in inverted membrane vesicles (E. coli) (P69428 whole entry, chain 1 of 3): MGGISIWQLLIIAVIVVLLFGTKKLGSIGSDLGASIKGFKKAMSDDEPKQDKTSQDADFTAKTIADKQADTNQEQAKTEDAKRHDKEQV
Chain of Tat translocon (TatABC) in inverted membrane vesicles (E. coli) (P69425 whole entry, chain 2 of 3, further chain): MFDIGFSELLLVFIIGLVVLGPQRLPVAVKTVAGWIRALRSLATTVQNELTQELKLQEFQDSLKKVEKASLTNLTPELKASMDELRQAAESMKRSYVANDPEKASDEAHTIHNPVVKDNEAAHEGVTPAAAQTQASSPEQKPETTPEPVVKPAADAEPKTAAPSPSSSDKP
Chain of Tat translocon (TatABC) in inverted membrane vesicles (E. coli) (P69423 whole entry, chain 3 of 3, further chain): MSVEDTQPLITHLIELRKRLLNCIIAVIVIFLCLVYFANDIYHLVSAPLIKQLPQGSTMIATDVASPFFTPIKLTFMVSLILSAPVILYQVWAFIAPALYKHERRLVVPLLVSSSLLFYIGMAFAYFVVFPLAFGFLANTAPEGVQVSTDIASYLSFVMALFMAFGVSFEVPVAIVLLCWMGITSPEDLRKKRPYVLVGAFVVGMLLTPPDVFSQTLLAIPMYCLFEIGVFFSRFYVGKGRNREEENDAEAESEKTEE

With “pre-SufI (from UniProt P26648 28-470) (natural protein)”, the percent decrease of precursor bound to the Tat machinery from 0.05 to 1 M KCl was 35% and the percent inhibition of translocon binding by 1 M urea worked out at 75%.

spTorA-GFP: the amount bound to the Tat machinery (8.3 pmol added) was 0.5 pmol and the amount of precursor added at which translocon binding saturates was 4 pmol.
